Here are results for one molecule from paper PMC4003184 (The Journal of General Physiology, 2014).

This test has as its target mouse TRPV4 fused to mCherry (mouse, UniProt Q9EPK8 1-871). As to the kind of experiment: cross-correlation raster image correlation spectroscopy.

Chain of mouse TRPV4 fused to mCherry (Q9EPK8 whole entry, the tested form may be a part): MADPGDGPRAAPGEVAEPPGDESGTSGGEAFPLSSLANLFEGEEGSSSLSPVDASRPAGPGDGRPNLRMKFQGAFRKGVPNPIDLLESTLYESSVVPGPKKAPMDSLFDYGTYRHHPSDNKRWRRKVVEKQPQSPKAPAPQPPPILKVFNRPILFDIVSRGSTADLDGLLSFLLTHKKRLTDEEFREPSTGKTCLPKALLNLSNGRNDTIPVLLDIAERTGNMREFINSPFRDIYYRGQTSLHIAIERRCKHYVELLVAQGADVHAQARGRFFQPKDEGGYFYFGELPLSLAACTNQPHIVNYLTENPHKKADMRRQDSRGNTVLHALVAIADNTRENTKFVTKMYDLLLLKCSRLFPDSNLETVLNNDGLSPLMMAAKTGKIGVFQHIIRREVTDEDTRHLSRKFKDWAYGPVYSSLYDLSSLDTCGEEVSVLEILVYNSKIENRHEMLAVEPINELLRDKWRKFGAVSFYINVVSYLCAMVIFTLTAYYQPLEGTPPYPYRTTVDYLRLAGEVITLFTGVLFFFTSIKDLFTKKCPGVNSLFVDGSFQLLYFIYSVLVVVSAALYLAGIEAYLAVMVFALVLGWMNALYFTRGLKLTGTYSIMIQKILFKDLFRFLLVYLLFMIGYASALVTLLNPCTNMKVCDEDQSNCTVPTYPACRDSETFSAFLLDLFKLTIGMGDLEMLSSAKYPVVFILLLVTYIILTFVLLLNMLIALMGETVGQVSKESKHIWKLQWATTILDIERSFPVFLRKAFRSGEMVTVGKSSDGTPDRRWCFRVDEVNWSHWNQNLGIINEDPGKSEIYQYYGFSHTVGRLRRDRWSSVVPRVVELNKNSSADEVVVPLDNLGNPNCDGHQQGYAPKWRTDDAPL

B1: AKAP150 fused to EGFP (natural protein, UniProt P24587 1-714, looked up)
chain: METSVSEIQIETKDEKRPEAASPQKERQERKTATLCFKRRKKVNKKKAKAGSKTAEETEKHAPEAGGSGQRQPAGAWASIKRLVTHRKPSESAEKQKPSEAEMQPEDGALPKKKTKSKLKIPCIRFSRGAKRSRPSKLTEDSGYVRVQGEADDLEIKAQIQPDEQATQAKSTQGLQEDVIVRDGKEIQESHISNNVISGEHVIGIELELEKESSALRMRTPGSEKEAKVILVKQGVQVQEASVLENSAADSPQPVTSTAPLSPATTHQLGLEEPSDSIRESAPSGKDDGRRKTAAEEKKSGETALGQAEEASSVSQADKSVLSQAEEATVGHTEEATVIQAQSQAKEGKLSQAEEATVAQAKETVLSQAEEVKLSQIEEPAISQAKKATVGQAKEAYVSQAEEAIVGHTEKATMGQAEEATVGHIEKTTVGQAEEATVGQAEEATVGQAEEATVGQAEEATVGQAEEATVGQAGEATVSHIEKTTVGQAEEAIVGQAEEATVGQAEEATVGQAEEATVGQAEEATVDQAEEATVGQAEEATVGQAGEAAVGQAEEAIVAQAEEATVGQAGEATVGQAEKATVGQAEEPIVGQAEETVLRHASDLKVNGVDAEKPRSEESKRMEPIAIIITDTEISEFDVKKSKNVPKQFLISMENEQVGVFANDSDFEGRTSEQYETLLIETASSLVKNAIELSVEQLVNEMVSEDNQINTLFQ
As for B1, the “cross-correlation ratio (Gcc/[mean of G_(TRPV4) and G_(AKAP)])” value came out at 0.4.
